The values that follow come from patent publication US20130323237A1 (Novartis, published 2013).

For the experiment, the target named is T1, recombinant human TSLP (R&D Systems) (human, UniProt Q969D9 29-159).
T1 construct: also called hTSLP; human thymic stromal lymphopoietin
As to the kind of experiment: SPR (Biacore), biotinylated recombinant human TSLP on SA-chip, Fab as analyte. In general terms: SPR reads the build-up and loss of mass on a sensor chip optically.

Protocol: A respective amount of biotinylated human serum albumin (HSA) was immobilized on the reference flow cell. […] The Fabs were applied in concentration series of 16-500 nM at a flow rate of 20 μl/min. Association phase was set to 60 s and dissociation phase to 120 s.

B1: MOR04493 Fab (Fab, V domains shown)
VH: QVQLVQSGAEVKKPGSSVKVSCKASGGTFSSYAISWVRQAPGQGLEWMGGIIPDFGWANYAQKFQGRVTITADESTSTAYMELSSLRSEDTAVYYCARSGMFYSILFDYWGQGTLVTVSS
VL: DIQMTQSPSSLSASVGDRVTITCRASQDIYNYLNWYQQKPGKAPKLLIYGASSLQSGVPSRFSGSGSGTDFTLTISSLQPEDFAVYYCQQQNDYPLTFGQGTKVEIKR
notes: carries two C-terminal tags (FLAG and 6xHis)
Take B1: the binding result is on record as “binds”.

B2: MOR04497 Fab (Fab, V domains shown)
VH: QVQLVESGGGLVQPGGSLRLSCAASGFTFSNHALSWVRQAPGKGLEWVSGIQYDGSNTGYADSVKGRFTISRDNSKNTLYLQMNSLRAEDTAVYYCARYYGYSYMDYWGQGTLVTVSS
VL: DIELTQPPSVSVAPGQTARISCSGDNLGSKYVHWYQQKPGQAPVLVIYADNNRPSGIPERFSGSNSGNTATLTISGTQAEDEADYYCQSYDHMLQVFGGGTKLTVLG
notes: as for B1
Turning to B2, the binding result was “binds”.

B3: MOR04832 Fab (Fab, V domains shown)
VH: QVQLVQSGAEVKKPGSSVKVSCKASGGTFSSYAISWVRQAPGQGLEWMGNIYPIFGYANYAQKFQGRVTITADESTSTAYMELSSLRSEDTAVYYCARYGQYGQHFSHGGMDVWGQGTLVTVSS
VL: DIQMTQSPSSLSASVGDRVTITCRASQDISISLTWYQQKPGKAPKLLIYGAFSLQSGVPSRFSGSGSGTDFTLTISSLQPEDFATYYCQQYYGTSATFGQGTKVEIKR
notes: as for B1
Take B3: the binding result is recorded as “binds”.

B4: MOR04494 Fab (Fab, V domains shown)
VH: QVQLVESGGGLVQPGGSLRLSCAASGFTFSSYYMSWVRQAPGKGLEWVSNISYDSSDTYYADSVKGRFTISRDNSKNTLYLQMNSLRAEDTAVYYCARQQYFDHIDIWGQGTLVTVSS
VL: DIELTQPPSVSVAPGQTARISCGGDSLGGKYVYWYQQKPGQAPVLVIYGDSKRPSGIPERFSGSNSGNTATLTISGTQAEDEADYYCQSYTNALSTVFGGGTKLTVLG
notes: as for B1
As to B4, the binding result is “binds”.

B5: MOR04496 Fab (Fab, V domains shown)
VH: QVQLVESGGGLVQPGGSLRLSCAASGFTFSSYAISWVRQAPGKGLEWVSSISYSGSSTYYADSVKGRFTISRDNSKNTLYLQMNSLRAEDTAVYYCARMEYWYHLLYMDYWGQGTLVTVSS
VL: DIVLTQSPATLSLSPGERATLSCRASQSIGDNYLAWYQQKPGQAPRLLIYDANNRATGVPARFSGSGSGTDFTLTISSLEPEDFATYYCQQYDDHPLTFGQGTKVEIKR
notes: as for B1
Take B5: the binding result was “binds”.
